Assay results reported in US20080085860A1 (Eli Lilly, published 2008).
* marks the point of attachment. Hexanoyl = CCCCCC(=O)*

Target: T1, Rat VPAC1 receptor (rat, UniProt P30083 31-459)
T1 sequence (looked up): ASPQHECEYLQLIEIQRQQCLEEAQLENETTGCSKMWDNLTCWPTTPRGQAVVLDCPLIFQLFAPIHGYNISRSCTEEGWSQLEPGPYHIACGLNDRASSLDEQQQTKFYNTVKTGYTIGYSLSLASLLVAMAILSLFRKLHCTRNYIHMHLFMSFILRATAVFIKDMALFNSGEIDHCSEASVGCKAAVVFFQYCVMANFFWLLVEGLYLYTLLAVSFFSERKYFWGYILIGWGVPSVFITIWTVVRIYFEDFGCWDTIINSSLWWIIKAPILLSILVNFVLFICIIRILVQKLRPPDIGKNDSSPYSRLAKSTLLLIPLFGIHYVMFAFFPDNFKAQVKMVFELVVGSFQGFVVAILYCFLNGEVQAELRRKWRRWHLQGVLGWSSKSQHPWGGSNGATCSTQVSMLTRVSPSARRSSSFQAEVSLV
Experiment: cell-based or functional assay

B1: P136: C6-…(WPEG40K)-NH2 (SEQ ID NO: 44) (peptide)
peptide: Hexanoyl-HSDAVFTDNYTRLRKQVAAKKYLQSIKNSRTSPPPK-NH2
modifications: not fully specified (residue 36); printed as C6-HSDAVFTDNYTRLRKQVAAKKYLQSIKNSRTSPPPK(WPEG40K)-NH2
With B1 the “EC50 (nm), in vitro potency using DiscoveRx (cAMP)” value was 15 nM.
